Laboratory results taken from patent US20130084301A1 (published 2013).

Assays:
[1] = biological target: T1, HCV 1a E2 with alanine substitution at 429 (hepatitis C virus genotype 1a, H77c, UniProt P27958 384-746); experiment: alanine-substitution ELISA
[2] = biological target: HCV 1a E2 with alanine substitution at 616 (hepatitis C virus genotype 1a, H77c, UniProt P27958 384-746); experiment: alanine-substitution ELISA
[3] = biological target: T2, HCV 1a E2 with alanine substitution at 441 (hepatitis C virus genotype 1a, H77c, UniProt P27958 384-746); experiment: alanine-substitution ELISA, antibody 2 ug/ml
[4] = biological target: T3, HCV 1a E2 with alanine substitution at 442 (hepatitis C virus genotype 1a, H77c, UniProt P27958 384-746); experiment: alanine-substitution ELISA, antibody 2 ug/ml
[5] = biological target: T4, HCV 1a E2 with alanine substitution at 443 (hepatitis C virus genotype 1a, H77c, UniProt P27958 384-746); experiment: alanine-substitution ELISA, antibody 2 ug/ml
[6] = biological target: HCV 1a E2 with alanine substitution at 613 (hepatitis C virus genotype 1a, H77c, UniProt P27958 384-746); experiment: alanine-substitution ELISA, antibody 2 ug/ml
[7] = biological target: T3, HCV 1a E2 with alanine substitution at …; experiment: alanine-substitution ELISA
[8] = biological target: T4, HCV 1a E2 with alanine substitution at …; experiment: alanine-substitution ELISA
[9] = biological target: HCV 1a E2 with alanine substitution at 420 (hepatitis C virus genotype 1a, H77c, UniProt P27958 384-746); experiment: alanine-substitution ELISA, antibody 2 ug/ml
[10] = biological target: HCV 1a E2 with alanine substitution at 428 (hepatitis C virus genotype 1a, H77c, UniProt P27958 384-746); experiment: alanine-substitution ELISA, antibody 2 ug/ml
[11] = biological target: HCV 1a E2 with alanine substitution at 437 (hepatitis C virus genotype 1a, H77c, UniProt P27958 384-746); experiment: alanine-substitution ELISA, antibody 2 ug/ml
[12] = biological target: T1, HCV 1a E2 with alanine substitution at …; experiment: alanine-substitution ELISA, antibody 2 ug/ml
[13] = biological target: T1, HCV 1a E2 with alanine substitution at …; experiment: alanine-substitution ELISA; row marked *: tested at 0.2 ug/ml
[14] = biological target: T2, HCV 1a E2 with alanine substitution at …; experiment: as above
[15] = biological target: T3, HCV 1a E2 with alanine substitution at …; experiment: as above
[16] = biological target: T4, HCV 1a E2 with alanine substitution at …; experiment: as above

Binder	binding result [1]	binding result [2]	% of binding to wt E2 [3] [%]	% of binding to wt E2 [4] [%]	% of binding to wt E2 [5] [%]	% of binding to wt E2 [9] [%]	% of binding to wt E2 [10] [%]	% of binding to wt E2 [11] [%]	also measured
HC-84.20 (antibody, V domains shown) VH: QVQLVQSGSEVKKPGSSVKVSCKASGGTFNIYTVNWVRQAPGQGLEWMGRIIPMLGSADYAQRFQGRVTISADKSTSTAYMELRNLKSEDTAVYYCARSLPREMFFRDDAFDIWGQGTMVTVSS VL: ETTLTQSPGTLSLSPGERATLSCRASQSVSSNLAWYQQKPGQAPRLLIYGASTRATGIPDRFSGSGSGTDFTLTISRLEPDDFVVYYCQQYGSSPVTFGQGTRLEIKR	no binding (tested: 2 ug/ml)	no binding (tested: 2 ug/ml)	6	26	26	–	–	–	% of binding to wt E2 [6]: 20%
HC-84.22 (antibody, V domains shown) VH: EVQLVQSGAEVKKPGSSVKVSCKASGDTFSSYSIHWVRQAPGQGLEWMGRIIPIVGLVDYAQMFQGRVTISADRSTNTVYMDLSNLRSEDTAIYYCARSLGCPNGVCHGPRAADYFDYWGQGTLVTVSS VL: EMTLTQSPSSLSASVGDRVTITCRASQSISSWLAWYQQKPGKAPKLLIYDASNLETGVPSRFSGSGSGTDFTFTISSLQPEDIATYYCQQYDNLPRTFGQGTKVDIKR	no binding (tested: 2 ug/ml)	no binding (tested: 2 ug/ml)	2	–	–	18	19	8	binding result [7]: no binding (tested: 2 ug/ml); binding result [8]: no binding (tested: 2 ug/ml)
HC-84.23 (antibody, V domains shown, also called HC-23) VH: QVQLVESGAEVKKPGSSVKVSCKASGDTFSSYSIHWVRQAPGQGLEWMGRIIPIVGLVDYAQMFQGRVTISADRSTNTVYMDLSNLRSEDTAYYCARASLGCPNGVCHGPRAADYFDYWGQGTLVTVSS VL: EIVLTQSPGTVSLFPGDRVTLSCRASQRVPSSSLAWYQQKPGQAPRLLLYGASSRATGIPDRFSGRGSGTDFALSISRLEPEDFAVYYCQQYGSSLITFGQGTRLEIKR	–	–	2	–	–	20	20	15	–
HC-84.24 (antibody, V domains shown) VH: QVQLVQSGAEVKKPGSSVKVSCKASGGTFSLNSLSWVRQAPGQGLEWMGTIIPIVGIANYAQKFQGRVTITADKSTGTAYMDLSSLSDDTAVYFCARELYSGTGFFRLEALDYWGQGTLVTVSS VL: DIQMTQSPATLSLSPGERATLSCRASQSVSSYLAWYQQKPGQAPRLLIYDASNRATGIPARFIAGGSGTDFTLTISSLEPEDFAVYYCQQYGSPQTFGQGTKLEIKR	–	–	–	14	1	–	–	–	% of binding to wt E2 [12]: 1%
HC-84.21 (antibody, V domains shown, also called CBH-84.21) VH: QVQLVQSGAEVKKPGSSVKVSCKASGTSFNRYTFAWVRQAPGQGLEWVGTIIPIVGLTNYAEKFQGRVSITADKSTSTTYMELSSLRSEDTAVYFCARKVEFWLGEIAPNKFDVFDLWGQGTMVTVSS VL: EIVLTQSPDSLAVSLGERATIHCKSSQSIFFSSNSKDYLAWYQQKPGQPPKLLIYWASTRDSGVPDRFSGSGSGTDFTLTITGLQADDAAVYYCQQFDTPQITFGGGTKLEIKR	–	–	–	–	–	–	–	–	% of binding to wt E2 [13]: 15%; % of binding to wt E2 [14]: 28%; % of binding to wt E2 [15]: 20%; % of binding to wt E2 [16]: 35%
